Source: patent US20090233868A1, “Small antiviral peptides against hepatitis C virus” (priority 2005, published 2009)

Legend:
[1] = test system: HCV IRES mediated translation; experiment: In vitro translation of uncapped HCV-IRES-Luc monocistronic RNA in rabbit reticulocyte lysate; type: biochemical, hepatitis C virus; settings: 25 ng and 50 ng protein; data not shown
[2] = test system: nonspecific RNA; experiment: Filter binding assay with nonspecific RNA probe; settings: control probe, same filter-binding assay

B1: wt-La: purified recombinant full-length wildtype human La protein (p52) (protein, UniProt P05455 1-408, looked up)
chain: MAENGDNEKMAALEAKICHQIEYYFGDFNLPRDKFLKEQIKLDEGWVPLEIMIKFNRLNRLTTDFNVIVEALSKSKAELMEISEDKTKIRRSPSKPLPEVTDEYKNDVKNRSVYIKGFPTDATLDDIKEWLEDKGQVLNIQMRRTLHKAFKGSIFVVFDSIESAKKFVETPGQKYKETDLLILFKDDYFAKKNEERKQNKVEAKLRAKQEQEAKQKLEEDAEMKSLEEKIGCLLKFSGDLDDQTCREDLHILFSNHGEIKWIDFVRGAKEGIILFKEKAKEALGKAKDANNGNLQLRNKEVTWEVLEGEVEKEALKKIIEDQQESLNKWKSKGRRFKGKGKGNKAAQPGSGKGKVQFQGKKTKFASDDEHDEHDENGATGPVKRAREETDKEEPASKQQKTENGAGDQ
modifications: full-length
Stimulation of HCV IRES mediated translation in absence of peptide [1]: dose dependent stimulation | Binding of non-specific RNA probe (filter binding) [2]: did not show considerable binding
